Measurements reported in PMC4132065 (2014).

B1: LexA BD-Pxa2_NBD-CT [S. cerevisiae] / Gal4 AD-Pxa1_NBD-CT [S. cerevisiae] (parent complex)
chain 1: GNDMTADFITNRRLLVTASSSIGRFVELKRNIQQLRGIRLRLNKFNDLLDANKGDDEKEPRDERCIVEYDDSRIKFENIPLITPANQVLVPELSFDLKHGNHLLIIGPNGCGKSSLFRILGGLWPIRATPNKNHQSKLIMPRRTVDRDCAIFYLPQRPYMGNRSTFREQIIYPDSIEQFKERYHNDYDLGDADLIKILQLLDLEDLVTENMSLLLAQRTSKNDSQQLSTEDNQSPCAIKVRDAFSIVRNWSEELTIGVQQRLAMARMYYHKPKFAVLDECTSAVAPEMEQRMYENAQNFGISLISVCHRTSLWHFHNYLLKFDGKGGYQFGPFNPKERLCNEEKLLELNAILDQQVPLWERKLKDLTIAKESNIIRKSETNLNLFEKIEDPKTSKSNALFNANKGQRITSPTGQETSKRLPLFSQPSSSASSNLLRNNKSLNKKVKTKKEEGKER
chain 2: SRLMHSIKDISQLTGYTNRIFTLLSVLHRVHSLNFNYGAVPSILSIRTEDASRNSNLLPTTDNSQDAIRGTIQRNFNGIRLENIDVIIPSVRASEGIKLINKLTFQIPLHIDPITSKSNSIQDLSKANDIKLPFLQGSGSSLLILGPNGCGKSSIQRIIAEIWPVYNKNGLLSIPSENNIFFIPQKPYFSRGGTLRDQIIYPMSSDEFFDRGFRDKELVQILVEVKLDYLLKRGVGLTYLDAIADWKDLLSGGEKQRVNFARIMFHKPLYVVLDEATNAISVDMEDYLFNLLKRYRFNFISISQRPTLIKYHEMLLEIGENRDGKWQLQAVGTDEAITSIDNEIEELERKLERVKGWEDERTKLREKLEII
B2: LexA BD-Pxa2_NBD-CT [S. cerevisiae] / Gal4 AD-Pxa1_NBD [S. cerevisiae] (parent complex)
chain 1: B1 chain 1
chain 2: SRLMHSIKDISQLTGYTNRIFTLLSVLHRVHSLNFNYGAVPSILSIRTEDASRNSNLLPTTDNSQDAIRGTIQRNFNGIRLENIDVIIPSVRASEGIKLINKLTFQIPLHIDPITSKSNSIQDLSKANDIKLPFLQGSGSSLLILGPNGCGKSSIQRIIAEIWPVYNKNGLLSIPSENNIFFIPQKPYFSRGGTLRDQIIYPMSSDEFFDRGFRDKELVQILVEVKLDYLLKRGVGLTYLDAIADWKDLLSGGEKQRVNFARIMFHKPLYVVLDE

Variants of: B1
Test: yeast two-hybrid, quantified with Yeast β-Galactosidase Assay Kit (Thermo); n = 3; parent: 190; read off a plot

Row | response | Variant
1 | ~38 | chain 1 Y328L
2 | ~69 | chain 1 F333A

Variants of: B2
Test: yeast two-hybrid, quantified with Yeast β-Galactosidase Assay Kit (Thermo); n = 3; parent: 185; read off a plot

Row | response | Variant
3 | ~17 | chain 1 Y328L
4 | ~41 | chain 1 F333A
